System: MS2 coat protein
Assay: apparent KD of MS2 coat protein; designed switch direction (-1 OFF switch, 1 ON switch): -1; higher = weaker reporter binding
Outline: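 RNA switches sharing common flanks were transcribed by stalled E. coli RNA polymerase on Illumina chips. A doubling series of SNAP-549-labelled MS2 coat protein, from 0.7 or 1.5 nM to 3 µM, was applied in Tris-HCl pH 7.5 buffer with KCl, MgCl2, BSA, DTT, tRNA and Tween-20. Each step lasted 0.8–1.5 h at the bottom of the series and 10–20 min at the top. Normalised cluster fluorescence was curve-fitted, giving apparent KD as the per-design median over clusters.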

[1] = Eterna round: R95, input ligand: FMN 200 uM
[2] = Eterna round: R95, input ligand: microRNA oligo, concentration not stated
[3] = Eterna round: R95, input ligand: none
[4] = input ligand: microRNA oligo, concentration not stated

| Sequence | apparent KD of MS2 coat protein (input ligand: FMN 200 uM) [µM] | apparent KD of MS2 coat protein (input ligand: none) [µM] | apparent KD of MS2 coat protein [1] [µM] | apparent KD of MS2 coat protein [2] [µM] | apparent KD of MS2 coat protein [3] [µM] | apparent KD of MS2 coat protein [4] [µM] |
| --- | --- | --- | --- | --- | --- | --- |
| UGUGUGAGACAGGAUAUGCUGGAUGUGAGGCGGGUAGAAGGGUCUACAUGAGGAUCACCCAUGUGGCCGGUUGG [Ex6 #70] (Eterna round: R97, puzzle: Exclusion 6) | 0.0194 | 0.0173 |  |  |  |  |
| UUUCAGCAAGGAUAUACGGGCUGUGCUUUUCAUUUCUUACAACAUGAGGAUCACCCAUGUAGAAGGUGCAACUU [Ex2 #10] (Eterna round: R97, puzzle: Exclusion 2) | 0.11 | 0.0265 |  |  |  |  |
| AGUACUAACACGAGAGUGUUAGUACAAUAAGCUUGUGGAACAUGAGGAUCACCCAUGUCCUCAUAAGCUCGUCUUAU [Mat - Sensor v3 - Turn-off var 2 - D99] (puzzle: Sensor v3, turn-off variant 2) |  |  | 0.0152 | 0.0703 | 0.0134 |  |
| AAUUAUUGAUGAGGAUAUUGUGGUGAAACACGACGAGAAGGCAUUUGUCACAUGAGGAUCACCCAUGUGAGCCUUGUGCAUAUA [Ex NG1 #63] (Eterna round: R96, puzzle: Exclusion NG 1) | 0.0252 | 0.0151 |  |  |  | 0.0187 |
| ACGCGUUUAGGAUAUACGUGCCUUGACAGUCCUAUUGUGUUACAUGAGGAUCACCCAUGUAGAAGGAGGCCGCG [Eternabot (L1) Solution 79] (Eterna round: R97, puzzle: Exclusion 2) | 0.0194 | 0.0202 |  |  |  |  |
| CUUUUGUGAGGAUAUCAGUAGUUAAAUAAUAAAAUUACUACUGAGAAGGCACAUGAGGAUCACCCAUGUUCCUC [Mat - Exclusion 4 - Mod of Salish - D70] (Eterna round: R96, puzzle: Exclusion 4) | 0.274 | 0.04 |  |  |  | 0.0351 |
| UAGUGACAUGAGGAUCACCCAUGUGAGGAUAUAGUAGGAGUAAAGAGGAAAGAGAGAACUAGAAGGCACAGUGA [JR_Exclu1_Sub031] (puzzle: Exclusion 1) |  |  | 0.08 | 0.0484 | 0.0514 |  |
| UUUCAUCAUGUAGGAUAUGCGUGGCAAAGCUAUGCAGAAGGACAUGAGGAUCACCCAUGUUCUAGCGUCUGCGUACAGAUGCUA [Mat - Exclusion NG 1 - Mod of JL - D73] (Eterna round: R96, puzzle: Exclusion NG 1) | 0.404 | 0.068 |  |  |  | 0.0432 |
| GAUAGAGAGCAGGAUAUCUUGGGUUAGUAUCGUAGAGAAGGGCUCACAUGAGGAUCACCCAUGUGGUCCAAGAU [JL Dibiri mod 02] (puzzle: Exclusion 6) |  |  | 0.0365 | 0.0151 | 0.0133 |  |
| AAGCUGGUAGGAUAUCGUACACGUAACAUGAGGAUCACCCAUGUGCGCUAUGUUGGAACUCGAGAAGGGCCCAUUC [Eternabot (L2) Solution 3] (Eterna round: R97, puzzle: Exclusion 5) | 0.0193 | 0.0185 |  |  |  |  |
| CUUAGACAUGAGGAUCACCCAUGUGAGGAUAUGAAAUGAAUUAAGUAUGAAGUAUGAAUCAGAAGGCACAUAUG [Mat - Mod of Hyphema D33] (puzzle: Exclusion 1) |  |  | 0.063 | 0.0958 | 0.107 |  |
| GUCCAGAUAGGAUAUUGUAAGGGCAACAUGAGGAUCACCCAUGUCGCAAAGAUCGCCCUUCGAGAAGGGUCCAAUU [Eternabot (L1) Solution 39] (Eterna round: R97, puzzle: Exclusion 5) | 0.0157 | 0.0176 |  |  |  |  |
| AGCUAGAUAGGAUAUGCCCGGGAUAACAUGAGGAUCACCCAUGUGACCGAAUCAAAUCCAGCAGAAGGGUUUGGGA [Mod of ViennaUCT 13 - Jieux - Exclusion 5] (Eterna round: R97, puzzle: Exclusion 5) | 0.022 | 0.0186 |  |  |  |  |
| GGUAAGCUAGGAUAUGCUUUGGGAAAGCAUUCCUUCGAUAAACUUGAGGAUCACCCAAGUAGAAGGAGCUUACC [salish99_ex2_r4_016] (Eterna round: R97, puzzle: Exclusion 2) | 0.0198 | 0.0118 |  |  |  |  |
| AAAAGCCAUGUUAGGAUAUGCAUGGCAGCUGCGAUGCAGAAGGAACAUGAGGAUCACCCAUGUGAACUUAAAUA [Anmaleus] (puzzle: Brourd's mod of Exclusion 4) |  |  | 0.0212 | 0.0162 | 0.0183 |  |
| AGGUUGUGAGGAUAUUAGUUAUAUGUUUGGAGGUGUAUGGCUGAGAAGGCACAUGAGGAUCACCCAUGUAGAUC [JR_Ex4_Sub049] (Eterna round: R97, puzzle: Exclusion 4) | 0.301 | 0.175 |  |  |  |  |
| GUUAGACAUGAGGAUCACCCAUGUGAGGAUAUGAUGCGAAUAAAGAAUGAAGUAAGCAUCAGAAGGCACAUAUG [Mat - Mod of Hyphema D30] (puzzle: Exclusion 1) |  |  |  | 0.235 |  |  |

| Sequence | apparent KD of MS2 coat protein (input ligand: FMN 200 uM) [µM] | apparent KD of MS2 coat protein (input ligand: none) [µM] | apparent KD of MS2 coat protein [1] [µM] | apparent KD of MS2 coat protein [2] [µM] | apparent KD of MS2 coat protein [3] [µM] | apparent KD of MS2 coat protein [4] [µM] |
| --- | --- | --- | --- | --- | --- | --- |
| AGAUAGUGCGGAGGAUAUCUUAAUAGAAAGAAUAGAGAAGGCUGACAUGAGGAUCACCCAUGUGAGGUCUUGAGACUACAUGGU [Prohibition 35 - Jieux - Exclusion NG 1] (Eterna round: R96, puzzle: Exclusion NG 1) | 0.0663 | 0.0182 |  |  |  | 0.0129 |
| CUUUUGUUAGGAUAUUAGUAGUAAAUAAAUAAAAUUACUACUGAGAAGGCACAUGAGGAUCACCCAUGUUCCUC [salish99_ex4_r3_045] (puzzle: Exclusion 4) |  |  |  | 0.0253 |  |  |
| ACAUGGAAGCAGGAUAUGCUUGUUUAAUUGUUUGCAGAAGGGCUAACAUGAGGAUCACCCAUGUAAGAGGUCUA [JR_E6_Sub062] (puzzle: Exclusion 6) |  |  |  | 0.0168 |  |  |
| GGUGCGUAUGUGAGGAUAUGCUGGUCCUUGGAUCUGCAGAAGGCACAUGAGGAUCACCCAUGUGGUGUCGUACC [salish99_Bmod_Ex4_024] (puzzle: Brourd's mod of Exclusion 4) |  |  |  | 0.276 |  |  |
| UCUCCCUGGCGAGGAUAUCCUGUGCGGUUCCGGCUCGUGUCUGUUACAUGAGGAUCACCCAUGUGGGAGAAGGUGCCUGUGGCU [Design 93] (Eterna round: R96, puzzle: Exclusion NG 2) | 0.141 | 0.124 |  |  |  | 0.068 |
| GCCCGUGGGCAAGGAUAUCCUACGCUGUUCUGGUUCGUGUCUGUCACAUGAGGAUCACCCAUGUGGGAGAAGGUGCAUUUGGGU [Design 55] (Eterna round: R96, puzzle: Exclusion NG 2) | 0.0141 | 0.0173 |  |  |  | 0.0111 |
| AGACCACAUGAGGAUCACCCAUGUCAGGAUAUCGACUGAACAGCUUCGGCUGUUCAGUCGAGAAGGGACAAUUA [Brourdxlusion 8 - Jieux - Exclusion 1] (Eterna round: R97, puzzle: Exclusion 1) | 0.06 | 0.0527 |  |  |  |  |
| UUUUAACAUGAGGAUCACCCAUGUGAGGAUAUCGAAAUUUAUAUUUAUAUUUAUAAUUCGAGAAGGCACAUUUU [JMF 93] (puzzle: Exclusion 1) |  |  |  | 0.181 |  |  |
| UUGUUUUUCACAGGAUAUCGCCUCUUAUUACAUGAGGAUCACCCAUGUUUAUUUUGUUACAUGUUCGAGAAGGGUGUAGUCUUU [JR_ExcNG2_Sub047] (Eterna round: R96, puzzle: Exclusion NG 2) | 0.586 | 0.475 |  |  |  | 0.368 |
| ACUUGUGCCCUAGGAUAUCGCCCAGCCAAUGGAUGAGAAGGAGGCGGGUGAAACAUGAGGAUCACCCAUGUAAACGCACAGGCG [Esa] (Eterna round: R96, puzzle: Exclusion NG 1) | 0.114 | 0.0269 |  |  |  | 0.0255 |
| GUAGAGUAAGGAUAUGGUGAAUAGGAUAGAAUGGUUAGAAACCAGAAGGUACAUGAGGAUCACCCAUGUAAUGU [Excluse me!!!! 16 - Jieux - Exclusion 4] (puzzle: Exclusion 4) |  |  |  | 0.0202 |  |  |
| GUCGUGCGGCUUUGCUGUACGAGUACAUGAGGAUCACCCAUGUAGGAUAUGGUUCGCUUUGCGUGCCAGAAGGGCGUGCGUUGU [Excl-NG3-LRO13] (Eterna round: R96, puzzle: Exclusion NG 3) |  |  |  |  |  | 0.0189 |
| CAGCACUCAGGAUAUACAUGAGGAUCACCCAUGUGUGAACAAGUGAGUGAUUUCCCAUGUAGAAGGGAGAGAUU [Exclusion 3 S1] (Eterna round: R97, puzzle: Exclusion 3) | 0.183 | 0.0982 |  |  |  |  |
| CACCGUUAGAGAGGAUAUCGUACAUGAGGAUCACCCAUGUAAUAAAUGAGAAUUUCGGAUGUAUGCGAGAAGGCUCAAAUCGGC [Ostracism 39 - Jieux - Exclusion NG 2] (Eterna round: R96, puzzle: Exclusion NG 2) | 0.0421 | 0.06 |  |  |  | 0.0425 |
| GGAGGGCUAGGAUAUGUAACAGGGAACUUGAGGAUCACCCAAGUGGCCGAAGGCACCCUGGCAGAAGGAGUAAAGA [Inmaislari] (Eterna round: R97, puzzle: Exclusion 5) | 0.0716 | 0.0508 |  |  |  |  |
| ACAUGACUGCUAGGAUAUAGAUGACAUGAGGAUCACCCAUGUUGUCCCAUGUUUAUGGAAACGGACUAGAAGGAGCAGUAUAUG [Ex NG2 #13] (Eterna round: R96, puzzle: Exclusion NG 2) | 0.0188 | 0.0202 |  |  |  | 0.0262 |
| UAAGUUUAGGUAGGAUAUACUUUCAAUUUCUCUUUCCUUACAUGAGGAUCACCCAUGUUUACAUUGUAGAAGGACCACUAUGUU [JR_ExcNG2_Sub054] (Eterna round: R96, puzzle: Exclusion NG 2) |  |  |  |  |  | 0.0205 |

Reference: the supplement of paper PMC9170038
